From publication PMC3088644

Biological target: mitochondrial ATP synthase (mouse (endogenous in MEFs)) (UniProt Q03265)
Experiment: native gel or EMSA

stoichiometry N: 2
Substance: mitochondrial ATP synthase (from UniProt Q03265 44-553) (complex)
